Experimental data taken from patent US20030013634A1, “Synthesis of small particles” (priority 2000, published 2003).

Columns and labels:
[1] = Median particle size by laser diffraction; type: physicochemical; conditions: for median particle size: laser diffraction, agglomerated insulin powder, Example 5
Excerpt: These fine insulin particles may aggregate to form larger particles due to intermolecular interaction between the molecules. […] Insulin precipitated as nano-sized particles, was also agglomerated to micron-sized particles.

[2] = Aerosol characterisation by impaction (Marple-Miller / Cascade Impactor); type: physicochemical
Method: In order to determine the aerosol performance of the protein particles, in vitro testing of the particles was assessed using a 5 stage Marple-Miller Impactor (Model 160, MSP Corporation, USA) with cut-off diameters of […]. The Marple-Miller impactor consisted of a stainless steel inlet throat, five impaction stages and an integral filter stage. The stages were previously coated with propylene glycol/methanol (50:50) to prevent particle bounce, thus minimising the probability of carry over of coarse particles onto lower stages.
A mass of 10-20 mg of insulin was weighed into a gelatin capsule (size 3, Park Davis, Australia) and was immediately dispersed by a powder inhaler device, Dinkihaler (Aventis, Frankfurt, Germany) into the Marple Miller Impactor at 60 L/min using a vacuum source (ERWEKA GMBH, Germany).
The fraction of the protein recovered in each stage was calculated by measuring the absorbance of the protein solution against the absorbance of a standard 1% solution of insulin.

[3] = Biochemical integrity by size exclusion chromatography (monomer content); type: physicochemical; conditions: for biological activity as indicated by the in vitro test for monomer content: after processing with the anti-solvent
Method: A protein-Pak 125 column (Waters, USA) was used for insulin. The mobile phase consisted of 50 mM sodium phosphate buffer at pH 3 with 300 mM sodium chloride. The powder samples were dissolved to prepare 1 mg/mL solution in deionised water by gentle shaking for 10 minutes to have complete dissolution. The supernatant was filtered through […] membrane filter and then injected into the HPLC column. […] The software Millennium 3.5 was used in the quantification of the monomer content.

[4] = Insulin deamidation testing by reverse phase HPLC; type: physicochemical; conditions: 2 mg/mL, after particle formation
Method: In order to determine the percentage of insulin that was deamidated by the process, a test of the insulin was performed using high performance liquid chromatography (HPLC). A reverse phase column (Symmetry® C18, 5 μm packing, 4.6 mm×150 mm) was used to separate the deamidated from the non-deamidated insulin. The gradient method was used with eluents 0.1% trifluoroacetic acid/acetonitrile 26% to 33% and the flow rate of 1 mL/min. The absorbance was monitored at 280 nm.
The percentage of deamido insulin was determined by comparing the peak area of the degradation product to the area of standard insulin containing the same concentration of insulin (2 mg/mL).

[5] = Particle size and morphology by SEM; type: physicochemical
Excerpt: These fine insulin particles may aggregate to form larger particles due to intermolecular interaction between the molecules.

[6] = values reported in the literature; cited from earlier work

CO2-ethanol: Insulin particles precipitated using carbon dioxide modified with 20 mol % ethanol as anti-solvent (comparison)
D(0.5, V) median particle size based on volume ([1]; 2-stage process): 8.2 +/− 0.6
D(0.5, V) median particle size based on volume ([1]; single stage production unit): 11.8 +/− 1.6
FPM (%) fine particle mass, mass fraction of particles below 5 μm ([2]; 2-stage process): 21.9%
biological activity as indicated by the in vitro test for monomer content [3]: significant deactivation

Ethane-ethanol
D(0.5, V) median particle size based on volume ([1]; 2-stage process): 4.8 +/− 0.4
D(0.5, V) median particle size based on volume ([1]; single stage production unit): 12.8 +/− 1.0
FPM (%) fine particle mass, mass fraction of particles below 5 μm ([2]; 2-stage process): 43.5%
increase in the amount of material less than 5 μm aerodynamic diameter ([2]; 2-stage versus single stage process): 100%
fraction of particles with a size >10 μm ([2]; aerodynamic particle size distribution, FIG. 4): around 45%
FPM (%) fine particle mass, mass fraction of particles below 5 μm ([2]; single stage production unit): 20.0%
biological activity as indicated by the in vitro test for monomer content [3]: retention of biological activity

insulin: Low endotoxin bovine insulin (Sigma), precipitated as fine particles from aqueous solution by the ASES process
median particle size [1]: 5 μm
median particle size ([1]; listed as Insulin): about 5 μm
FPM (%) fine particle mass, mass fraction of particles below 5 μm ([2]; 2-stage process): 45%
fine particle fraction (% <5 μm) ([2]; Marple Miller Impactor, Dinkihaler, 60 L/min): at least 42%
FPM (%) fine particle mass, mass fraction of particles below 5 μm ([2]; single stage production unit): 20%
monomer content ([3]; 1 mg/mL in deionised water, after particle formation): 99.5%
percentage of deamido insulin [4]: 3.0%
size of nano-sized particles ([5]; modified dual vessel apparatus (FIG. 10b)): 50-500 nm
size of nano-sized particles ([5]; single-stage apparatus (FIG. 9b)): 50-500 nm
maximum FPM obtained by other methods [6]: ≤ 10%
